The target of the data set is tissue factor (Innovin, Dade) (UniProt P13726).

This is an account of results in patent publication US7612188.

Chain of UniProt P13726 (P13726 33-295): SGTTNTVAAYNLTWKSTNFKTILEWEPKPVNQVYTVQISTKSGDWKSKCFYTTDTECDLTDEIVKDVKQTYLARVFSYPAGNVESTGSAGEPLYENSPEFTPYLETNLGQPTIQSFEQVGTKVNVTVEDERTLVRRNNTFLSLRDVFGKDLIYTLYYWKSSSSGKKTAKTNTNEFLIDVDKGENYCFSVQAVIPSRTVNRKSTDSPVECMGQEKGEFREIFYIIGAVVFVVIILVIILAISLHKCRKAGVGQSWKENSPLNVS

As for Human factor VIIa-T9Q11E33, the “competition clotting assay with FFR-VIIa (0 to 3.5 nM) and Innovin, compared with VIIa-Q11E33” value is given as “Human factor VIIa-T9Q11E33 exhibited a severe loss of competitive binding affinity”.

Take “factor VII with leucine for phenylalanine at position 5 and the Q11E33 mutations”: the “competition clotting assay with active site modified VIIa (0-3.2 nM), compared with the Q11E33 mutant” value is recorded as “had much lower activity than the Q11E33 mutant”.
